± gives the uncertainty stated by the source.
Assay: self-splicing fitness, log relative to wild type (ln ratio); higher = more splicing; Tetrahymena group I intron in knt gene, E. coli kanamycin selection, DiMSum; sequences stand for … in CUCUCU…GGAGGGAAAAGUUAUCAGGCAUGCACCUGGUAGCUAGUCUUUAAACCAAUAGAUUGCAUCGGUUUAAAAGGCAAGACCGUCAAAUUGCGGGAAAGGGGUCAACAGCCGUUCAGUACCAAGUCUCAGGGGAAACUUUGAGAUGGCCUUGCAAAGGGUAUGGUAAUAAGCUGACGGACAUGGUCCUAACCACGCAGCCAAGUCCUAAGUCAACAGAUCUUCUGUUGAUAUGGAUGCAGUUCACAGACUAAAUGUCGGUCGGGGAAGAUGUAUUCUUCUCAUAAGAUAUAGUCGGACCUCUCCUUAAUGGGAGCUAGCGGAUGAAGUGAUGCAACACUGGAGCCGCUGGGAACUAAUUUGUAUGCGAAAGUAUAUUGAUUAGUUUUGGAGUACUCGUGGUCG
Outline: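 Fitness was computed with DiMSum as the error-weighted combination of replicate fold changes, kanamycin versus none, each normalised to wild type. The library randomised all eight intron nucleotides of the P1ex region, with the intron placed in the knt kanamycin-resistance gene on pET-22b(+) in E. coli BL21(DE3). Six replicate transformations were grown overnight at 37°C or 30°C on LB agar with or without 25 μg/mL kanamycin, plus 100 μg/mL carbenicillin, 50 μM IPTG and 0.2% rhamnose. Pooled colonies were amplicon-sequenced on an Illumina HiSeq 2500.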

| Sequence | self-splicing fitness (ln) (30 °C) | self-splicing fitness (ln) (37 °C) |
| --- | --- | --- |
| AGGGAGCAAUAUUACGUAUU | -2.96 ± 0.18 | -2.15 ± 0.21 |
| GACCAGCAAUAUUACGUACU | -0.709 ± 0.069 | 0.123 ± 0.082 |
| AAAAAGCAAUAUUACGCCAG | -2.24 ± 0.14 | -2.24 ± 0.23 |
| AGAUAGCAAUAUUACGACAU | -0.0342 ± 0.013 | 0.0833 ± 0.033 |
| CAUAAGCAAUAUUACGUCUA | -2.41 ± 0.14 | -1.4 ± 0.11 |
| CAGAAGCAAUAUUACGAUAC |  | -1.81 ± 0.2 |
| GAGUAGCAAUAUUACGAACA |  | -1.28 ± 0.34 |
| UCGUAGCAAUAUUACGAUGC | -4.1 ± 0.33 | -2.27 ± 0.27 |
| GAAGAGCAAUAUUACGCAGG | -1.89 ± 0.32 |  |
| UAAAAGCAAUAUUACGGGAC | -3.16 ± 0.13 | -2.47 ± 0.19 |
| GCGUAGCAAUAUUACGCCGC | -2.36 ± 0.42 |  |
| CACUAGCAAUAUUACGUCGG | -1.25 ± 0.082 | 0.0907 ± 0.1 |
| CUGCAGCAAUAUUACGGAAU | -5.11 ± 0.45 | -2.74 ± 0.32 |
| CUACAGCAAUAUUACGGAGA | -4.39 ± 0.42 | -2.27 ± 0.27 |
| AUACAGCAAUAUUACGCGGU | -3.44 ± 0.21 | -2.04 ± 0.18 |
| UUAAAGCAAUAUUACGUAGU | -3.87 ± 0.21 | -1.9 ± 0.18 |
| GGGAAGCAAUAUUACGGCAA | -0.863 ± 0.14 | -1.02 ± 0.14 |
| GCACAGCAAUAUUACGUCCC | -0.0609 ± 0.11 | -0.44 ± 0.11 |
| GAACAGCAAUAUUACGGGUA | -1.54 ± 0.07 | -1.32 ± 0.076 |
| UACGAGCAAUAUUACGUGUA | -3.39 ± 0.2 | -2.21 ± 0.16 |
| AGGGAGCAAUAUUACGAUUC | -3.76 ± 0.35 | -2.41 ± 0.29 |
| UGCGAGCAAUAUUACGGCUG | -1.04 ± 0.1 | -0.349 ± 0.15 |
| GCGUAGCAAUAUUACGCGUC | -2.75 ± 0.28 | -2.06 ± 0.46 |
| GGCAAGCAAUAUUACGCCGU | -2.44 ± 0.34 | -0.00259 ± 0.29 |
| AUCAAGCAAUAUUACGAAGA | -1.66 ± 0.19 | -1.64 ± 0.23 |

| Sequence | self-splicing fitness (ln) (30 °C) | self-splicing fitness (ln) (37 °C) |
| --- | --- | --- |
| CAGAAGCAAUAUUACGAGAU | -3.23 ± 0.17 | -2.44 ± 0.23 |
| AGUGAGCAAUAUUACGUAAC | -4.68 ± 0.23 | -1.67 ± 0.14 |
| AUUCAGCAAUAUUACGUUAG | -3.78 ± 0.15 | -1.52 ± 0.1 |
| GGAUAGCAAUAUUACGGUGC | -1.85 ± 0.48 | -2.5 ± 0.49 |
| UGAAAGCAAUAUUACGCGGA | -1.66 ± 0.13 | -1.52 ± 0.13 |
| UGCCAGCAAUAUUACGGGUG | -2.99 ± 0.13 | -2.98 ± 0.17 |
| CACGAGCAAUAUUACGCCGA | -2.35 ± 0.39 |  |
| GCGUAGCAAUAUUACGUGGU | -3.53 ± 0.19 | -3.64 ± 0.22 |
| GCUUAGCAAUAUUACGGGAC | -1.78 ± 0.18 | -1.19 ± 0.2 |
| CUCAAGCAAUAUUACGGUAC |  | -3.06 ± 0.37 |
| UAACAGCAAUAUUACGCGGA | -2.12 ± 0.11 | 0.0542 ± 0.076 |
| GCUCAGCAAUAUUACGUAAC | -1 ± 0.087 | -0.439 ± 0.11 |
| GAUGAGCAAUAUUACGAUUA | -2.57 ± 0.21 | -1.4 ± 0.18 |
| CGGCAGCAAUAUUACGGCAC | -2.58 ± 0.28 | -2.21 ± 0.22 |
| GGCAAGCAAUAUUACGGAGG | -4.1 ± 0.18 | -2.87 ± 0.16 |
| GACCAGCAAUAUUACGUCCA | -1.75 ± 0.095 | -0.749 ± 0.095 |
| GAUCAGCAAUAUUACGUGGC | -2.95 ± 0.21 | -0.582 ± 0.15 |
| GUGUAGCAAUAUUACGAGGG | -3.38 ± 0.44 | -2.99 ± 0.47 |
| AGAAAGCAAUAUUACGUAGG | -2.89 ± 0.14 | -2.16 ± 0.15 |
| CUGUAGCAAUAUUACGUAUU | -4.45 ± 0.29 | -3.47 ± 0.33 |
| CGCUAGCAAUAUUACGUGUU | -4.69 ± 0.29 | -3.17 ± 0.26 |
| AUCUAGCAAUAUUACGACUA | -0.918 ± 0.2 | -0.511 ± 0.16 |
| AGAAAGCAAUAUUACGUUAA | -2.23 ± 0.14 | -1.44 ± 0.17 |
| UUCAAGCAAUAUUACGGUAC | -2.8 ± 0.2 | -2.71 ± 0.36 |
| GUUCAGCAAUAUUACGGCUA | -0.564 ± 0.14 | -0.232 ± 0.15 |

| Sequence | self-splicing fitness (ln) (30 °C) | self-splicing fitness (ln) (37 °C) |
| --- | --- | --- |
| GGUUAGCAAUAUUACGCCAU | -1.39 ± 0.38 |  |
| AAAGAGCAAUAUUACGUAGU | -2.39 ± 0.16 | -2.46 ± 0.22 |
| GGCAAGCAAUAUUACGUCCC |  | -0.249 ± 0.28 |
| CACAAGCAAUAUUACGGGCC | -3.78 ± 0.33 | -2.01 ± 0.29 |
| CUCGAGCAAUAUUACGGUAC | -2.82 ± 0.22 | -2.84 ± 0.4 |
| AUGCAGCAAUAUUACGGGCA | -0.699 ± 0.11 | 0.227 ± 0.12 |
| AUGCAGCAAUAUUACGGAGA | -4.25 ± 0.44 | -4.21 ± 0.34 |
| UGGUAGCAAUAUUACGUCCU | 0.31 ± 0.2 | 0.713 ± 0.3 |
| UAAUAGCAAUAUUACGCACA | -0.694 ± 0.14 | -0.0269 ± 0.15 |
| GAGAAGCAAUAUUACGGAAA | -2.35 ± 0.45 | -1.92 ± 0.35 |
| GGGUAGCAAUAUUACGUCGG | -3.8 ± 0.2 | -1.68 ± 0.17 |
| CACCAGCAAUAUUACGUUCC | -4.91 ± 0.41 | -2.45 ± 0.26 |
| UGGAAGCAAUAUUACGCCUU | -2.28 ± 0.31 |  |
| UAAAAGCAAUAUUACGACAG | -0.555 ± 0.057 | -0.173 ± 0.074 |
| AUAGAGCAAUAUUACGGCGU | 0.102 ± 0.079 | 0.527 ± 0.12 |
| AACCAGCAAUAUUACGUGCU | -3.52 ± 0.16 | -1.94 ± 0.15 |
| AAUGAGCAAUAUUACGGGCA | -3.76 ± 0.42 | -1.24 ± 0.29 |
| CGAGAGCAAUAUUACGCGUG | -1.48 ± 0.13 | -2.95 ± 0.23 |
| UCCAAGCAAUAUUACGAUCA | -1.1 ± 0.14 | -0.861 ± 0.15 |
| UUCAAGCAAUAUUACGUUAA | -1.59 ± 0.11 | -1.47 ± 0.12 |
| AUUAAGCAAUAUUACGAUCG | -2.33 ± 0.12 | -0.671 ± 0.12 |
| GGAUAGCAAUAUUACGACAU | -0.425 ± 0.014 | -0.0181 ± 0.034 |
| CAAAAGCAAUAUUACGGCGC | -2.33 ± 0.13 | -1.5 ± 0.18 |
| GCUUAGCAAUAUUACGGAAU | -1.15 ± 0.062 | 0.0941 ± 0.077 |
| GCAAAGCAAUAUUACGAGAC |  | -2.63 ± 0.43 |

| Sequence | self-splicing fitness (ln) (30 °C) | self-splicing fitness (ln) (37 °C) |
| --- | --- | --- |
| CGUGAGCAAUAUUACGCAAG | -2.85 ± 0.15 | -0.853 ± 0.13 |
| CGACAGCAAUAUUACGGGAA | -3.44 ± 0.17 | -1.92 ± 0.099 |
| UGAGAGCAAUAUUACGGCGU | -4.04 ± 0.35 | -2.81 ± 0.34 |
| AAUUAGCAAUAUUACGCGGG | -2.73 ± 0.15 | -0.941 ± 0.14 |
| UAGCAGCAAUAUUACGCGCU | -2.62 ± 0.12 | -1.6 ± 0.12 |
| ACCGAGCAAUAUUACGUCGC | -3.69 ± 0.28 |  |
| AACCAGCAAUAUUACGGGUU | -2.89 ± 0.078 | -3.19 ± 0.13 |
| CGAAAGCAAUAUUACGUUUU | -4.51 ± 0.24 | -2.31 ± 0.18 |
| GUGCAGCAAUAUUACGUUAG | -2.62 ± 0.14 | -0.353 ± 0.11 |
| UGACAGCAAUAUUACGAAGG | -3.84 ± 0.23 | -1.36 ± 0.17 |
| ACCUAGCAAUAUUACGGCUA | -2.93 ± 0.13 | -2.65 ± 0.17 |
| GGACAGCAAUAUUACGGAAG | -2.62 ± 0.13 | -1.36 ± 0.14 |
| AGACAGCAAUAUUACGGGCC | -1.45 ± 0.1 | -1.21 ± 0.11 |
| CGCAAGCAAUAUUACGCAUG | -2.77 ± 0.11 | -2.19 ± 0.12 |
| AGGUAGCAAUAUUACGUCAG | -2.334 ± 0.019 | -1.42 ± 0.035 |
| UGACAGCAAUAUUACGAAAU | -3.12 ± 0.19 | -2.74 ± 0.24 |
| CAUCAGCAAUAUUACGACCU | -2.49 ± 0.31 | -1.17 ± 0.29 |
| GACAAGCAAUAUUACGCAGA | -3.04 ± 0.18 | -1.83 ± 0.14 |
| AGGAAGCAAUAUUACGGUAA | -2.47 ± 0.2 | -2.26 ± 0.18 |
| CGGGAGCAAUAUUACGGAUC | -3.09 ± 0.43 | -2.07 ± 0.42 |
| GCAAAGCAAUAUUACGCGUC | -2.92 ± 0.28 | -1.94 ± 0.32 |
| ACAUAGCAAUAUUACGUACC | -0.809 ± 0.17 | 0.0877 ± 0.2 |
| AACUAGCAAUAUUACGCAUA | -1.64 ± 0.15 | -1.1 ± 0.14 |
